Measurements published in patent publication US20240279281A1, “Peptide Inhibitors of Interleukin-23 Receptor” (Janssen Pharmaceutica NV, priority 2023, published 2024).
Starred links: 1 amine or outer side, 2 acyl side, 3 side chain; linkers in the order of their positions; H or OH if unused. Positions of bridges follow the written chain, without caps; N, C: chain ends. Non-standard residues stand in square brackets, D forms with d. No end group written: not given here. X7 = 2‑amino‑3‑(5-methylpyridin-3-yl)propanoic acid, Cc1cncc(CC(N[*:1])C(=O)[*:2])c1; 2Nal(6-OH) = N[C@@H](Cc1ccc2cc(O)ccc2c1)C(=O)O; Trp(7-Me) = Cc1cccc2c(C[C@H](N)C(=O)O)c[nH]c12; 3Pal(5-Me) = Cc1cncc(C[C@H](N)C(=O)O)c1; AEF = NCCOc1ccc(C[C@H](N)C(=O)O)cc1; 3Pal = N[C@@H](Cc1cccnc1)C(=O)O; Pen = CC(C)(S)[C@H](N)C(=O)O; dDab = NCC[C@@H](N)C(=O)O; Thp = NC1(C(=O)O)CCOCC1; Abu = CC[C@H](N)C(=O)O; Ahp = NCCCCCCC(=O)O; Sar = CNCC(=O)O

T1: interleukin-23 receptor (IL-23R), Q5VWK5
T1 chain: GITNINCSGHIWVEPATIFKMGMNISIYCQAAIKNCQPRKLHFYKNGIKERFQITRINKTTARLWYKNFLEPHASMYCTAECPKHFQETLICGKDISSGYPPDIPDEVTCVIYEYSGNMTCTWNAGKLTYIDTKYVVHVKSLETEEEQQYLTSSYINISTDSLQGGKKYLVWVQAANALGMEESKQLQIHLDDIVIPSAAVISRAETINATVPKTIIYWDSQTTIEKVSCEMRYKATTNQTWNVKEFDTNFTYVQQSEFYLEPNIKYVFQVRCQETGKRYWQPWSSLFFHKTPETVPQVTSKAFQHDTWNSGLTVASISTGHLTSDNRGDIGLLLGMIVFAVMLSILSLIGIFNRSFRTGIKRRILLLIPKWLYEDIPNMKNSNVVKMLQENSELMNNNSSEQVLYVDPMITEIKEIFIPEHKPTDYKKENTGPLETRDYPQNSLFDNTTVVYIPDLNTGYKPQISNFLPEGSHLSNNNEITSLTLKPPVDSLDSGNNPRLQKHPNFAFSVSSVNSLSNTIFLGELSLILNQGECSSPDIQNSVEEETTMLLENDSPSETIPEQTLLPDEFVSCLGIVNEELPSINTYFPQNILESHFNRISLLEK

B1: SEQ ID NO: 397 (peptide)
peptide: [Pen]ET[Trp(7-Me)]K(Ac)[Pen][2‑amino‑3‑(4-(2-aminoethoxy)phenyl)propanoic acid][2‑amino‑3‑(6-hydroxynaphthalen-2-yl)propanoic acid][Thp]EN[3Pal][Sar]
modifications: not fully specified (bridges); ends and bridges not checked
B2: SEQ ID NO: 48 (peptide)
peptide: R[Pen]NT[Trp(7-Me)]K(Ac)[Pen][5‑(4-(2-amino-2-carboxyethyl)phenoxy)‑N,N,N‑trimethylpentan‑1‑aminium][2‑amino‑3‑(6-hydroxynaphthalen-2-yl)propanoic acid][Thp]EN[X7][Sar]
modifications: disulfide 2-7 (inferred); ends not checked
B3: SEQ ID NO: 413 (peptide)
peptide: [dDab](Ac)[Abu]NTWQC[AEF][2Nal(6-OH)][Thp]CN[3Pal][Sar]
modifications: not fully specified (bridges); ends and bridges not checked
B4: SEQ ID NO: 51 (peptide)
peptide: R[Pen]NT[Trp(7-Me)]K(Ac)[Pen][AEF][2Nal(6-OH)][Thp]EN[3Pal(5-Me)][Sar]
modifications: disulfide 2-7 (inferred); ends not checked
B5: SEQ ID NO: 422 (peptide)
peptide: R[Pen]ET[Trp(7-Me)]K(Ac)[Pen][AEF][2Nal(6-OH)][Thp]K(Ac)N[3Pal][Sar]
modifications: not fully specified (bridges); ends and bridges not checked
B6: SEQ ID NO: 424 (peptide)
peptide: R[Pen]NT[Trp(7-Me)]K(Ac)[Pen][AEF][2Nal(6-OH)][Thp]KN[3Pal][Sar]
modifications: not fully specified (residue 11, bridges); ends and bridges not checked; also: K11: lipidated lysine
B7: SEQ ID NO: 52 (peptide)
peptide: R[Pen]NT[Trp(7-Me)]K(Ac)[Pen][AEF][2Nal(6-OH)][Thp]EN[3Pal(5-Me)][Sar]
modifications: disulfide 2-7 (inferred); ends not checked
B8: SEQ ID NO: 49 (peptide)
peptide: R[Pen]NT[Trp(7-Me)]K(Ac)[Pen][2‑amino‑3‑(4-(2-aminoethoxy)phenyl)propanoic acid][2‑amino‑3‑(6-hydroxynaphthalen-2-yl)propanoic acid][Thp]K(Ac)N[X7][Sar]
modifications: disulfide 2-7 (inferred); ends not checked
B9: SEQ ID NO: 417 (peptide)
peptide: [Ahp][Pen]NT[Trp(7-Me)]K(Ac)[Pen][AEF][2Nal(6-OH)][Thp]EN[3Pal][Sar]
modifications: not fully specified (bridges); ends and bridges not checked
B10: SEQ ID NO: 50 (peptide)
peptide: [dK](Me3)[Pen]NT[Trp(7-Me)]K(Ac)[Pen][2‑amino‑3‑(4-(2-aminoethoxy)phenyl)propanoic acid][2‑amino‑3‑(6-hydroxynaphthalen-2-yl)propanoic acid][Thp]EN[X7][Sar]
modifications: disulfide 2-7 (inferred); ends not checked

Target: T1, interleukin-23 receptor (IL-23R), Q5VWK5
Assay: cell-based or functional assay

Binder | IL23R Reporter Assay IC50 [nM] | PBMC pSTAT3 IC50
B1 | < 10 | < 10 pM
B2 | < 10 | –
B3 | < 10 | < 0.1 nM
B4 | < 10 | –
B5 | < 10 | < 10 pM
B6 | > 100 | < 1 nM
B7 | < 10 | –
B8 | < 10 | –
B9 | < 10 | < 10 pM
B10 | < 10 | –
